Test results taken from patent US20250076311A1 (Chugai, published 2025).

T1: cynomolgus monkey FcγRIIb extracellular domain with C-terminal His-tag (cynomolgus monkey)
T1 construct: also called cyno FcγRIIb; cynoFcγRIIb
T1 chain: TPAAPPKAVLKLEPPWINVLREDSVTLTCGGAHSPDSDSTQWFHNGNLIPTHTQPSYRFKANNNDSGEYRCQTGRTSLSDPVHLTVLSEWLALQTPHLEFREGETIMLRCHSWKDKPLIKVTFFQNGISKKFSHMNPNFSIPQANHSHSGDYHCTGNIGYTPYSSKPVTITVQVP

T2: human FcγRIIb extracellular domain with C-terminal His-tag (human, UniProt P31994 43-217)
T2 construct: also called human FcgRIIb; FcgRIIb
T2 sequence: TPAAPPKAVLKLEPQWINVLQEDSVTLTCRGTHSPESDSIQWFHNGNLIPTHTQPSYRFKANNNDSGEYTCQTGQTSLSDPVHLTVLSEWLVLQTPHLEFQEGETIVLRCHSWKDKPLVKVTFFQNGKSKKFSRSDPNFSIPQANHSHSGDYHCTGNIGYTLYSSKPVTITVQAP

T3: cynomolgus monkey FcγRIIIaS extracellular domain with C-terminal His-tag (cynomolgus monkey, UniProt Q8SPW2 21-206 at identity 1.00))
T3 construct: also called cyno FcγRIIIaS; FcgRIIIaS
T3 chain: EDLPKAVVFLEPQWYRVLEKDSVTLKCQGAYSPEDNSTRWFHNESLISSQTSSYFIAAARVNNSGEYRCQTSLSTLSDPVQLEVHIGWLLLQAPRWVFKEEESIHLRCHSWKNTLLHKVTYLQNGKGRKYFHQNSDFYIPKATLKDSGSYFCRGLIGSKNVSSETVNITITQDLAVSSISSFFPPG

T4: human FcγRIIaR extracellular domain with C-terminal His-tag (human, UniProt P12318 34-217)
T4 construct: also called human FcγRIIa (type R); FcgRIIaR
T4 chain: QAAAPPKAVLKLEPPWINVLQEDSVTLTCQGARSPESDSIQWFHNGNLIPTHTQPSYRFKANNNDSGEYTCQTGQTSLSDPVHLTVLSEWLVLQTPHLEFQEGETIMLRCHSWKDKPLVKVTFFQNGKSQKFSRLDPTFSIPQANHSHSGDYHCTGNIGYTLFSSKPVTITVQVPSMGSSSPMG

T5: human FcγRIIaH extracellular domain with C-terminal His-tag (human, UniProt P12318 34-217)
T5 construct: also called human FcγRIIa (type H); FcgRIIaH
T5 sequence: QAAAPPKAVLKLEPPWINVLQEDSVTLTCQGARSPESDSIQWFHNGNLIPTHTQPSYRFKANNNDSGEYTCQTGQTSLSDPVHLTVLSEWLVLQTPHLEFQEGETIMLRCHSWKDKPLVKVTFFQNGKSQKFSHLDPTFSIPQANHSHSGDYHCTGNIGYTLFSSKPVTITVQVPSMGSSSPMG


Columns and labels:
Assay in all cases: SPR; KD of SG1 / KD of variant
[1] = target: T1, cynomolgus monkey FcγRIIb extracellular …
[2] = target: T2, human FcγRIIb extracellular domain with …
[3] = target: T6, human FcγRIIIaV extracellular domain with C-terminal His-tag (human, UniProt P08637 17-208)
T6 construct: also called human FcgRIIIaV; FcgRIIIaV
T6 sequence (P08637 17-208 F176V): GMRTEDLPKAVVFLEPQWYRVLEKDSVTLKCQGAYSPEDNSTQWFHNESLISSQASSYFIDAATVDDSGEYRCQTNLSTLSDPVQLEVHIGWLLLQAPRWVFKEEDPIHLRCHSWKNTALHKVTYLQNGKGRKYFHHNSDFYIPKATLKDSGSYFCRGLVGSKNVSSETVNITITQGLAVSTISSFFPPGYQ

[4] = target: T3, cynomolgus monkey FcγRIIIaS …
[5] = target: T4, human FcγRIIaR extracellular domain …
[6] = target: T5, human FcγRIIaH extracellular domain …

| Binder | KD fold (SG1 = 1) [1] [fold] | KD fold (SG1 = 1) [2] [fold] | KD fold (SG1 = 1) [3] [fold] | KD fold (SG1 = 1) [4] [fold] | KD fold (SG1 = 1) [5] [fold] | KD fold (SG1 = 1) [6] [fold] |
| --- | --- | --- | --- | --- | --- | --- |
| M103205H795-MY143 (heavy chain) with M103202L889-SK1 (light chain) (antibody, human IgG1, kappa, name in EU numbering, Substitutions introduced into M103205H795-SG1; positions in EU numbering) heavy: QVTLKESGPVLVKPTETLTLTCTVSGIDLSHDDISWVRQAPGKGLEWVGIISYAGSTYYASWAKGRLTISKDTSKNQVVLTMTNMDPVDTATYYCARGVPAYSHGGDLWGQGTLVTVSSASTKGPSVFPLAPSSKSTSGGTAALGCLVKDYFPEPVTVSWNSGALTSGVHTFPAVLQSSGLYSLSSVVTVPSSSLGTQTYICNVNHKPSNTKVDKKVEPKSCDKTHTCPPCPAPELLSGPSVFLFPPKPKDTLMISRTPEVTCVVVDVSEEDPEVKFNWYVDGVEVHNAKTKPREEQYNSTYRVVSVLTVLHQDWLNGKEYKCKVSNKALPAPIEKTISKAKGQPREPQVYTLPPSREEMTKNQVSLTCLVKGFYPSDIAVEWESNGQPENNYKTTPMVLDSDGSFFLYSKLTVDKSRWQQGNVFSCSVMHEALHNHYTQKSLSLSP light: DIVMTQSPATLSLSPGERATLSCTSSQSVYHANWLSWFQQKPGQPPKLLIYWASTLAYGVPSRFSGSGSGTDFTLTISSLQPEDAATYYCAGGYGGGRYAFGQGTKVEIKRTVAAPSVFIFPPSDEQLKSGTASVVCLLNNFYPREAKVQWKVDNALQSGNSQESVTEQDSKDSTYSLSSTLTLSKADYEKHKVYACEVTHQGLSSPVTKSFNRGEC | 3.9 | 6.8 | 0.51 | 1.29 | 13.1 | – |
| M103205H795-MY272 (heavy chain) with M103202L889-SK1 (light chain) (antibody, human IgG1, kappa, name in EU numbering, Substitutions introduced into M103205H795-SG1; positions in EU numbering) heavy: QVTLKESGPVLVKPTETLTLTCTVSGIDLSHDDISWVRQAPGKGLEWVGIISYAGSTYYASWAKGRLTISKDTSKNQVVLTMTNMDPVDTATYYCARGVPAYSHGGDLWGQGTLVTVSSASTKGPSVFPLAPSSKSTSGGTAALGCLVKDYFPEPVTVSWNSGALTSGVHTFPAVLQSSGLYSLSSVVTVPSSSLGTQTYICNVNHKPSNTKVDKKVEPKSCDKTHTCPPCPAPELLQGPSVFLFPPKPKDTLMISRTPEVTCVVVDVSDEDPEVKFNWYVDGVEVHNAKTKPREEQYNSTYRVVSVLTVLHQDWLNGKEYKCKVSNKALPKPIEKTISKAKGQPREPQVYTLPPSREEMTKNQVSLTCLVKGFYPSDIAVEWESNGQPENNYKTTPKVLDSDGSFFLYSKLTVDKSRWQQGNVFSCSVMHEALHNHYTQKSLSLSP light: DIVMTQSPATLSLSPGERATLSCTSSQSVYHANWLSWFQQKPGQPPKLLIYWASTLAYGVPSRFSGSGSGTDFTLTISSLQPEDAATYYCAGGYGGGRYAFGQGTKVEIKRTVAAPSVFIFPPSDEQLKSGTASVVCLLNNFYPREAKVQWKVDNALQSGNSQESVTEQDSKDSTYSLSSTLTLSKADYEKHKVYACEVTHQGLSSPVTKSFNRGEC | – | 3.8 | – | 1.24 | – | – |
| M103205H795-MY269 (heavy chain) with M103202L889-SK1 (light chain) (antibody, human IgG1, kappa, name in EU numbering, Substitutions introduced into M103205H795-SG1; positions in EU numbering) heavy: QVTLKESGPVLVKPTETLTLTCTVSGIDLSHDDISWVRQAPGKGLEWVGIISYAGSTYYASWAKGRLTISKDTSKNQVVLTMTNMDPVDTATYYCARGVPAYSHGGDLWGQGTLVTVSSASTKGPSVFPLAPSSKSTSGGTAALGCLVKDYFPEPVTVSWNSGALTSGVHTFPAVLQSSGLYSLSSVVTVPSSSLGTQTYICNVNHKPSNTKVDKKVEPKSCDKTHTCPPCPAPELLMGPSVFLFPPKPKDTLMISRTPEVTCVVVDVSDEDPEVKFNWYVDGVEVHNAKTKPREEQYNSTYRVVSVLTVLHQDWLNGKEYKCKVSNKALPKPIEKTISKAKGQPREPQVYTLPPSREEMTKNQVSLTCLVKGFYPSDIAVEWESNGQPENNYKTTPKVLDSDGSFFLYSKLTVDKSRWQQGNVFSCSVMHEALHNHYTQKSLSLSP light: DIVMTQSPATLSLSPGERATLSCTSSQSVYHANWLSWFQQKPGQPPKLLIYWASTLAYGVPSRFSGSGSGTDFTLTISSLQPEDAATYYCAGGYGGGRYAFGQGTKVEIKRTVAAPSVFIFPPSDEQLKSGTASVVCLLNNFYPREAKVQWKVDNALQSGNSQESVTEQDSKDSTYSLSSTLTLSKADYEKHKVYACEVTHQGLSSPVTKSFNRGEC | – | – | – | 1.64 | – | 2.8 |
| M103205H795-MY274 (heavy chain) with M103202L889-SK1 (light chain) (antibody, human IgG1, kappa, name in EU numbering, Substitutions introduced into M103205H795-SG1; positions in EU numbering) heavy: QVTLKESGPVLVKPTETLTLTCTVSGIDLSHDDISWVRQAPGKGLEWVGIISYAGSTYYASWAKGRLTISKDTSKNQVVLTMTNMDPVDTATYYCARGVPAYSHGGDLWGQGTLVTVSSASTKGPSVFPLAPSSKSTSGGTAALGCLVKDYFPEPVTVSWNSGALTSGVHTFPAVLQSSGLYSLSSVVTVPSSSLGTQTYICNVNHKPSNTKVDKKVEPKSCDKTHTCPPCPAPELLTGPSVFLFPPKPKDTLMISRTPEVTCVVVDVSDEDPEVKFNWYVDGVEVHNAKTKPREEQYNSTYRVVSVLTVLHQDWLNGKEYKCKVSNKALPKPIEKTISKAKGQPREPQVYTLPPSREEMTKNQVSLTCLVKGFYPSDIAVEWESNGQPENNYKTTPKVLDSDGSFFLYSKLTVDKSRWQQGNVFSCSVMHEALHNHYTQKSLSLSP light: DIVMTQSPATLSLSPGERATLSCTSSQSVYHANWLSWFQQKPGQPPKLLIYWASTLAYGVPSRFSGSGSGTDFTLTISSLQPEDAATYYCAGGYGGGRYAFGQGTKVEIKRTVAAPSVFIFPPSDEQLKSGTASVVCLLNNFYPREAKVQWKVDNALQSGNSQESVTEQDSKDSTYSLSSTLTLSKADYEKHKVYACEVTHQGLSSPVTKSFNRGEC | – | – | 0.32 | 0.58 | – | 8.5 |
| M103205H795-MY281 (heavy chain) with M103202L889-SK1 (light chain) (antibody, human IgG1, kappa, name in EU numbering, Substitutions introduced into M103205H795-SG1; positions in EU numbering) heavy: QVTLKESGPVLVKPTETLTLTCTVSGIDLSHDDISWVRQAPGKGLEWVGIISYAGSTYYASWAKGRLTISKDTSKNQVVLTMTNMDPVDTATYYCARGVPAYSHGGDLWGQGTLVTVSSASTKGPSVFPLAPSSKSTSGGTAALGCLVKDYFPEPVTVSWNSGALTSGVHTFPAVLQSSGLYSLSSVVTVPSSSLGTQTYICNVNHKPSNTKVDKKVEPKSCDKTHTCPPCPAPELLQGPSVFLFPPKPKDTLMISRTPEVTCVVVDVSDEDPEVKFNWYVDGVEVHNAKTKPREELYNSTYRVVSVLTVLHQDWLNGKEYKCKVSNKALPKPIEKTISKAKGQPREPQVYTLPPSREEMTKNQVSLTCLVKGFYPSDIAVEWESNGQPENNYKTTPPVLDSDGSFFLYSKLTVDKSRWQQGNVFSCSVMHEALHNHYTQKSLSLSP light: DIVMTQSPATLSLSPGERATLSCTSSQSVYHANWLSWFQQKPGQPPKLLIYWASTLAYGVPSRFSGSGSGTDFTLTISSLQPEDAATYYCAGGYGGGRYAFGQGTKVEIKRTVAAPSVFIFPPSDEQLKSGTASVVCLLNNFYPREAKVQWKVDNALQSGNSQESVTEQDSKDSTYSLSSTLTLSKADYEKHKVYACEVTHQGLSSPVTKSFNRGEC | – | – | – | 0.49 | – | 5.3 |
| M103205H795-MY270 (heavy chain) with M103202L889-SK1 (light chain) (antibody, human IgG1, kappa, name in EU numbering, Substitutions introduced into M103205H795-SG1; positions in EU numbering) heavy: QVTLKESGPVLVKPTETLTLTCTVSGIDLSHDDISWVRQAPGKGLEWVGIISYAGSTYYASWAKGRLTISKDTSKNQVVLTMTNMDPVDTATYYCARGVPAYSHGGDLWGQGTLVTVSSASTKGPSVFPLAPSSKSTSGGTAALGCLVKDYFPEPVTVSWNSGALTSGVHTFPAVLQSSGLYSLSSVVTVPSSSLGTQTYICNVNHKPSNTKVDKKVEPKSCDKTHTCPPCPAPELLHGPSVFLFPPKPKDTLMISRTPEVTCVVVDVSDEDPEVKFNWYVDGVEVHNAKTKPREEQYNSTYRVVSVLTVLHQDWLNGKEYKCKVSNKALPKPIEKTISKAKGQPREPQVYTLPPSREEMTKNQVSLTCLVKGFYPSDIAVEWESNGQPENNYKTTPKVLDSDGSFFLYSKLTVDKSRWQQGNVFSCSVMHEALHNHYTQKSLSLSP light: DIVMTQSPATLSLSPGERATLSCTSSQSVYHANWLSWFQQKPGQPPKLLIYWASTLAYGVPSRFSGSGSGTDFTLTISSLQPEDAATYYCAGGYGGGRYAFGQGTKVEIKRTVAAPSVFIFPPSDEQLKSGTASVVCLLNNFYPREAKVQWKVDNALQSGNSQESVTEQDSKDSTYSLSSTLTLSKADYEKHKVYACEVTHQGLSSPVTKSFNRGEC | 3.6 | 1.8 | – | 0.33 | 3 | – |
